Data set [1] is described as follows: Total Antioxidant Capacity (TAC) assay. The following applies: highest peptide concentration 1.5 mM; compared to parent peptide. As for the experimental part: As previously reported, the TAC (Total Antioxidant Capacity) Assay (Cell Biolabs, Inc, San Diego, CA) was used to measure the antioxidant capacity of the PIC1 variants based on the reduction of copper (II) to copper (I). The kit protocol was performed per the manufacturer's recommendations.
The antioxidant properties for the PIC1 variants were evaluated in a Total Antioxidant Capacity (TAC) assay, as previously reported. Total antioxidant activity over a range of peptide concentrations were determined for the stapled and the D-amino acid peptides based on the PA-I8Sar and PA-C9Sar backbones (FIG. 4A-4B), with the activity of the highest peptide concentration reported (1.5 mM) (FIG. 5A-5C).

In data set [2] the target is T1, C1q (Homo sapiens, UniProt P02745+P02746+P02747).
T1 construct: purchased Complement Technology (Tyler, TX)
T1 sequence (P02745 23-245): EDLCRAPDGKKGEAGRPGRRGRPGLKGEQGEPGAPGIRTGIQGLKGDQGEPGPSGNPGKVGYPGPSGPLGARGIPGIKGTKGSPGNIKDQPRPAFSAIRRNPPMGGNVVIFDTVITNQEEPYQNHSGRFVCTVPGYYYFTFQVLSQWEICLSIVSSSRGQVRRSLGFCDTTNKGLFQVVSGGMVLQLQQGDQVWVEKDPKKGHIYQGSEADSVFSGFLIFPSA
T1 sequence (P02746 28-253): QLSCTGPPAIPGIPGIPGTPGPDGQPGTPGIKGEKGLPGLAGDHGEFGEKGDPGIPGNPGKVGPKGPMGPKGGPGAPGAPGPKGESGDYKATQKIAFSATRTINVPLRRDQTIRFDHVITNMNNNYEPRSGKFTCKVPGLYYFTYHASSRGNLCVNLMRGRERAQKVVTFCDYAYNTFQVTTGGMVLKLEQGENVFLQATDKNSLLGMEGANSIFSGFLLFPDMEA
T1 sequence (P02747 29-245): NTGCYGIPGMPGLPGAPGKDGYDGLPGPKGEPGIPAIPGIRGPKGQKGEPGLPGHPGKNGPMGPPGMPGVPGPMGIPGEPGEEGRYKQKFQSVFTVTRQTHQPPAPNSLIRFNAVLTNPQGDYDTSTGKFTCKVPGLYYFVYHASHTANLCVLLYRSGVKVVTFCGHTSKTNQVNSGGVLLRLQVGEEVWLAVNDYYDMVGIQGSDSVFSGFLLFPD
Kind of data set: C1q binding ELISA-type assay. As to conditions: compared to parent peptide. As for the experimental part:
The C1q binding assay was performed as previously described. Briefly, an Immunlon-2 HB ELISA plate was coated with 1 μg/ml C1q in bicarbonate buffer overnight at 4° C. The plates were washed with PBS-T (phosphate buffered saline+0.1% Tween) and then blocked with 1% gelatin/PBS for 2 hours at room temperature. After washing, the plates were incubated with the peptides starting at 2.5 mg/ml and then serially diluted in 1% gelatin/PBS for 1 hour at room temperature followed by washing. Plates were then probed with rabbit antibody raised against the lead peptide […] (SEQ ID NO: 2) that lacked PEGylation at 1:1000 in 1% gelatin/PBS for 1 hour at room temperature followed by a goat anti-rabbit HRP (Sigma Aldrich, St Louis, MO) at 1:1,000 in 1% gelatin/PBS for 1 hour at room temperature with a washing step in between. After addition of TMB substrate solution to the wells, the reaction was stopped using 1N H2SO4, and the plate read on a BioTek Synergy HT plate reader at 450 nm.
The astrovirus capsid protein and the PIC1 molecules derived from it inhibit classical complement pathway activation by binding to the pattern recognition molecule C1q. The inventors next tested peptide variant binding to C1q in an ELISA-type assay in which C1q is used as the capture substrate and bound peptide detected with a rabbit polyclonal antibody against the peptide portion of PA-dPEG24 ([…]-d24; SEQ ID NO: 3). Binding curves were derived for the stapled and D-amino acid peptides based on the PA-I8Sar and PA-C9Sar (FIG. 5A-5C) backbone, from which half-maximal binding concentrations were calculated (FIGS. 2A and B, respectively). […] For the peptides based on the PA-C9Sar backbone, C1q was bound to a greater degree than the parent peptide (FIG. 2B).
A general note: An ELISA detects its analyte on a solid surface through an enzyme-linked reagent.

Data set [3] has as its system antibody-initiated complement activation (lysis of AB human red blood cells by type O serum). Kind of data set: ABO incompatibility hemolytic complement assay (CH50-type). Type of data set: cell-based. As to conditions: peptides 0.8 mg/ml (~0.5 mM); compared to parent peptide. As for the experimental part: FIG. 1A-1B show PIC1 peptides' inhibition of complement activation in an ABO incompatibility assay. […] Inhibition of ABO incompatibility hemolysis in a CH50-type assay. Peptides are at a final concentration of 0.5 mM. Values are represented as a percent of the positive control, which consists of human 0 sera and AB red blood cells in GVBS^++ buffer. Data are the means of n=3 independent experiments±SEM.
For hemolytic complement assays, human red blood cells (RBCs) from type AB donors were purified, washed, and standardized to 1.0×10^9 cells/ml, as previously described. Human sera from type 0 donors at a 15% final concentration was combined with 0.5 mM of the peptides and the volume was brought up to 0.2 ml with GVBS^++ and 5.0×10^7 RBCs. The samples were incubated for 1 hour at 37° C. and then spun at 3,000 rpm for 5 minutes and the supernatant was collected and read at 412 nm. Values are represented as a percent of the positive control, which consists of human 0 sera and AB red blood cells in GVBS^++ buffer.
To assess the extent to which the peptide variants inhibit antibody-initiated complement activation, an ABO incompatibility ex vivo assay was utilized in which purified erythrocytes from a ‘type AB+’ donor are incubated with sera from a ‘type 0’ subject containing anti-A and anti-B antibodies. Peptides were tested at a concentration of 0.8 mg/ml (˜0.5 mM).

Data set [4] concerns the target T2, CTLA-4 (Homo sapiens, UniProt P16410).
T2 sequence (P16410 36-223): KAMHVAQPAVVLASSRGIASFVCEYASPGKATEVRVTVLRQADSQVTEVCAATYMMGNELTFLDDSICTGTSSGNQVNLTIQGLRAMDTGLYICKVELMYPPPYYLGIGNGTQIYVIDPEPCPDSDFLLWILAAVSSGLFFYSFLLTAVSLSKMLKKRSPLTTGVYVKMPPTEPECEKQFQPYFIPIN
Kind of data set: CTLA-4 Blockade Bioassay (Promega). Format: cell-based. The arrangement: host or cells: Jurkat T cells (CTLA-4 effector cells) co-cultured with aAPC/Raji cells. As to conditions: increasing concentrations; listed as RLS-0154. Here is the method: CTLA-4 effector cells were incubated with aAPC/Raji Cells in the absence or presence of increasing concentrations of anti-CTLA-4 antibody (positive control), RLS-0122, RLS-0150, RLS-0154, RLS-0164 and RLS-0168 and RLS-0088 (negative control). Luminescence was detected in luminometer plate reader. The drop-off in signal with the test peptides at high concentrations is due to cell death as a result of peptide buffer effects on the cells.
To assess if PIC1 peptides could block CTLA-4 inhibitory activity in a cell-based assay, select peptides were screened in the CTLA-4 Blockade Bioassay (Promega). This bioluminescent cell-based assay can be used to measure the potency and stability of molecules targeting CTLA-4 and consists of two genetically engineered cell lines: CTLA-4 effector cells: Jurkat T cells expressing human CTLA-4 and a luciferase reporter driven by a native promoter which responds to TCR/CD28 activation and aAPC/Raji Cells: Raji cells expressing an engineered cell surface protein designed to activate cognate TCRs in an antigen-independent manner and endogenously expressing CTLA-4 ligands CD80 and CD86. When the two cell types are co-cultured, CTLA-4 competes with CD28 for their shared ligands, CD80 and CD86 and thus inhibits CD28 pathway activation and promoter-mediated luminescence. Addition of a molecule that blocks the interaction of CTLA-4 with its ligands CD80 and CD86 results in promoter-mediated luminescence.

Data set [5] relates to purified human Pan T-cells. Kind of data set: T-cell exhaustion protocol (repeated CD3/CD28 Dynabead stimulation). Format: cell-based. As to conditions: ELISA, listed as RLS-0154. Here is the method:
Purified human pan-T-cells were subject to stimulation with Dynabeads every 48 hours over the period of 8 days with cells also receiving PIC1 peptides (2 mg/ml) at each stimulation. Cells not receiving Dynabeads were run in parallel to assess background levels of Caspase 3/7 signal. At the eighth day, cells were harvested, and the levels of Caspase 3/7 determined by ELISA.
Purified human pan-T-cells were subject to stimulation with Dynabeads every 48 hours over the period of 8 days with cells also receiving PIC1 peptides (2 mg/ml) at each stimulation. Cell supernatants were collected at each stimulation and levels of IL-2 and IFN-gamma assayed by ELISA.
T-cell exhaustion is a form of T-cell dysfunction that occurs in cancer. It is generally defined by poor effector function, reduction in cytokine release (e.g., IL-2, TNF-alpha, IFN-gamma), sustained expression of inhibitory receptors (e.g., PD-1, LAG-3, CD244, CD160) with the progressive loss of effector function due to overstimulation. Exhaustion can prevent optimal control of tumor growth. Exhausted T cells are prevalent in the tumor microenvironment (TME) and can lead to T-cell apoptosis. T-cell exhaustion is reversible and pharmaceutical inhibition of T-cell exhaustion has been considered a promising strategy by many cancer researchers. To ascertain if PIC1 peptides could reverse T-cell exhaustion and increase T cell viability and effector function, a T-cell exhaustion protocol was developed. To induce T-cell exhaustion, purified human Pan T-cells were stimulated with T-Activator CD3/CD28 Dynabeads and cells were washed and re-stimulated every 48 hours. PIC1 peptides were added to the cells after each stimulation with Dynabeads. After three to four stimulations, cells were harvested for readouts which consisted of assessing T-cell apoptosis by measuring Caspase 3/7 levels and production of cytokines IL-2 and IFN-gamma, which are indicative of T-cell functionality. […] To further evaluate if PIC1 peptides could restore T-cell functionality in cells that have undergone the exhaustion protocol, the inventors next assessed production of cytokines IL-2 and IFN-gamma. Supernatants from the cells after each stimulation was collected and the cytokines measured by ELISA. […] The lower level of IFN-gamma signal was consistently seen in this assay.

Data set [6] concerns the target T3, VEGF (Homo sapiens, UniProt P15692).
T3 construct: Promega (bioassay)
T3 sequence (P15692 27-191 isoform P15692-4): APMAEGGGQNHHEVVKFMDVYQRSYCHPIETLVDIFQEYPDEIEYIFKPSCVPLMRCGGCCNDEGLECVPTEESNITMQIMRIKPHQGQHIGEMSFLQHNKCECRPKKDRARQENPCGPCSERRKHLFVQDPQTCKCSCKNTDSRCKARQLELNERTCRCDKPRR
Kind of data set: VEGF Bioassay (Promega), VEGF signaling via VEGFR-2 (KDR). Format: cell-based. The text has this:
Luminescence was detected in luminometer plate reader.
Angiogenesis, or the formation of new blood vessels from the established vasculature, is an essential element in tumor growth and metastasis formation. Inhibiting tumor angiogenesis is considered a major therapeutic strategy in oncology. […] The bioluminescent signal is detected in a luminometer.

Data set [7] has as its target T4, MPO (Homo sapiens, UniProt P05164).
T4 construct: purchased Lee BioSolutions (Maryland Heights, MO)
Kind of data set: MPO activity assay. Format: biochemical. The following applies: compared to parent peptide. As for the experimental part: The MPO activity assay was performed as previously described. Briefly, peptides were diluted to 12 mg/ml and serially titrated in a 96 well plate at a volume of 0.02 ml. MPO was diluted to 20 μg/ml and 0.02 ml was added to the titrated peptides. TMB (3,30,5,50-tetramethylbenzidine) (0.1 ml) was added to each well for 2 minutes, followed by 0.1 ml of 2.5 N H2SO4 for another 2 minutes, and then read on a 96 well plate reader (BioTek) at 450 nm.
To ascertain the inhibition of MPO activity by the various peptides, a range of concentrations of the stapled peptides and D-amino acid variants were tested (FIG. 3A-3B) and half-maximal activity levels were calculated from the dose-response curves (FIG. 6A-6C, respectively).

Data set [8] has as its target T5, PD-1 binding to PD-L1 (Homo sapiens, UniProt Q9NZQ7).
T5 construct: purchased
Kind of data set: PD-1:PD-L1 inhibitor screening ELISA. The following applies: FIG. 8. Here is the method: PIC1 peptides were allowed to bind to immobilized PD-L1 on the surface of the plate. Biotinylated PD-1 was then added and bound PD-1 detected by streptavidin-HRP reagent followed by TMB as the substrate for the colorimetric assay.
This inhibitor screening ELISA pair was designed to facilitate the identification and characterization of new PD-1 pathway inhibitors. In this assay, biotinylated human PD-1 was bound to immobilized human PD-L1 and a colorimetric sandwich ELISA platform was used. Plates were coated with human PD-L1 followed by incubation with various PIC1 peptides. Human PD-1-Biotin was then allowed to bind the coated human PD-L1 followed by addition of streptavidin-HRP. TMB was then added as the colorimetric HRP substrate and the wells of the plate analyzed in a plate reader at an absorbance of 450 nm.
The immune checkpoint pathway is an area of significant interest in cancer research. PD-1 is one of the best characterized checkpoint proteins. The binding between PD-1 and its ligand PD-L1 suppresses T-cell activation and allows cancer cells to escape from body's immune surveillance. Therefore, the pharmaceutical inhibition of PD-1 or its ligand has been considered a promising strategy by many cancer researchers. To ascertain if these PIC1 derivatives could inhibit PD-1 interaction with PD-L1, a commercial ELISA kit was utilized. […]

The conditions of data set [9]: without PEGylation; as described in U.S. Pat. No. 10,005,818; cited from earlier work.
[10] abbreviates: peptides 2 mg/ml, stimulation 2.

“Also recorded” adds a separate entry of the source. Bridges are numbered along the chain shown (N, C = ends). Where no end group is shown, it is not given here. [ ]: non-standard residue; d: D form. S5 = C=CCCC[C@](C)(N)C(=O)O; Sar = CNCC(=O)O

T4 sequence (P05164 279-745 limits assumed): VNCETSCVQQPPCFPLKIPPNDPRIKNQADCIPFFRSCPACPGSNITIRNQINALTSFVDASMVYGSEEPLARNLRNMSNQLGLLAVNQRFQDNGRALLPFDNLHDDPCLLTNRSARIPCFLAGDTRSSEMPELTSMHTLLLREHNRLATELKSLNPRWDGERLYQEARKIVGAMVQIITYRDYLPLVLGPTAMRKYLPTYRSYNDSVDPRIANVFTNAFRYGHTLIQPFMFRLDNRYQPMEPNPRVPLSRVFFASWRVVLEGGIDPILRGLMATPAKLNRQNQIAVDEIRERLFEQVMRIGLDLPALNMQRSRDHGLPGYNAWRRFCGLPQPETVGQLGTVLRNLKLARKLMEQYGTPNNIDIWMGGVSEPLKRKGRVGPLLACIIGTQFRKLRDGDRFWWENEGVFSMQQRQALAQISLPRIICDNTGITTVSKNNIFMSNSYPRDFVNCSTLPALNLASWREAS
T4 sequence (P05164 165-273 limits assumed): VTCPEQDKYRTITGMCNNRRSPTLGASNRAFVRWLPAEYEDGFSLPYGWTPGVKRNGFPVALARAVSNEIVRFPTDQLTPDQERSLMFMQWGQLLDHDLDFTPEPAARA
T5 sequence (Q9NZQ7 19-238 limits assumed): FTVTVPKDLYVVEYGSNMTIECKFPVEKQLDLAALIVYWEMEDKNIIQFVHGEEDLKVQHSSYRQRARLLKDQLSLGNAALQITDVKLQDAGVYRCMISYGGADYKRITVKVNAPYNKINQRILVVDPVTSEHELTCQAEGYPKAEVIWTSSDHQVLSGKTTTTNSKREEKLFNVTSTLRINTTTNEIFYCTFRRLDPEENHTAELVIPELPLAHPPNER

As for “IAdLILEP(Sar)CS5QERS5A (H-IA[dL]ILEP[Sar]C[S5]QER[S5]A-OH; staple 10-14; not fully specified) [PA-0142]”, in data set [1], the “total antioxidant capacity, in words” value was “decreased activity compared to the parent peptide”. Also, the “binding to C1q (binding curves, half-maximal binding), in words” value in data set [2] is “did not bind C1q”. In data set [3], the “inhibition of ABO incompatible hemolysis (complement inhibition), in words” value was “similar”.

In the case of “IALILES5I(Sar)CS5ERAA (IALILE[S5]I[Sar]C[S5]ERAA; staple 7-11; not fully specified; printed as IALILES5I(Sar)CS5ERAA) [PA-0154]”, in [4], the “inhibition of CTLA-4 mediated cell signaling (increase in luminescence), in words” value is “showed inhibitory activity; also recorded: able to inhibit CTLA-4 mediated cell signaling”. For the same substance, the “Caspase 3/7 levels, in words” value in data set [5] (peptides 2 mg/ml at each stimulation, day 8) is listed as “increase in Caspase 3/7 levels; also recorded: did not display reduction of Caspase levels”. For the same substance, in [5] (setting [10]), the “IFN-gamma levels in cell supernatants, in words” value was “not and increased levels”; the “IL-2 levels in cell supernatants, in words” value is recorded as “detectable IL-2 at stimulation 2; also recorded: increased levels”. In [6], the “inhibition of VEGF signaling via VEGFR-2 (luminescence), in words” value is recorded as “dose-dependently reduced luminescence”. In addition, in data set [7], the “inhibition of MPO activity (half-maximal values), in words” value was “decreased MPO inhibition”.

For the substance “IS5LILS5PI(Sar)CQERAA (I[S5]LIL[S5]PI[Sar]CQERAA; staple 2-6; not fully specified; printed as IS5LILS5PI(Sar)CQERAA) [PA-0152]”, the “binding to C1q (binding curves, half-maximal binding), in words” value in data set [2] is given as “did not titrate”. Moreover, the “inhibition of MPO activity (half-maximal values), in words” value in data set [7] is given as “decreased MPO inhibition”.

With “IALILEPICCQERAA-PEG24 (C-terminal PEG24) [PA-0071, PIC1 peptide with C-terminal monodisperse 24-mer PEGylated moiety]”, in data set [8], the “inhibition of binding of PD-1 to PD-L1, in words” value is on record as “did not inhibit”.

“IALILEPI(Sar)CQERAA (IALILEPIXCQERAA; sarcosine at position 9; MOD_RES (9)..(9) Sarcosine) [PA-0089, parent peptide, sarcosine at position 9 of PIC1]”: the solubility in water entry in data set [9] is listed as “water soluble without PEGylation”.

The values above are taken from patent US20230303623A1, “PEPTIDES AND METHODS OF USE” (REALTA LIFE SCIENCES, INC., priority 2020, published 2023).
